Test results: patent publication US20240005439A1, “IMAGING METHODS AND RADIOTRACERS FOR USE THEREIN” (VESTLANDETS INNOVASJONSSELSKAP AS (VIS), priority 2020, published 2024)
Blank lines part the entries; values can stand above or below the molecule they belong to.

Experiments:
[1] = Stability and plasma protein binding of labelled proteins by SEC-HPLC; type: physicochemical; conditions: high resolution size exclusion chromatography
Description: The stability and plasma protein binding of stock solutions of ^18F-cytochrome C and ^124I-cystatin C was evaluated by high resolution size exclusion chromatography (SEC-HPLC) after 12 h storage in room temperature and after 8 days of storage in fridge (4° C.).

[2] = set-up: species or system rats; conditions: rat, in vivo
Description: (§1) All animals were scanned using the same scanner, anesthesia procedure, monitoring and positioning as mentioned above. First, CT semicircular scans (same settings as contrast CT) were acquired from the lower edge of the ribs to the pelvis for anatomical reference and attenuation correction for PET. Following CT, a 10-minute dynamic PET acquisition was initiated, which was started 30 seconds before the bolus injection (30 sec duration of the injection) of 5-10 MBq ^18F-cytochrome C diluted in 1 ml saline through a tail vein catheter. Images were reconstructed in 1-5 coincidence mode using the Tera-Tomo 3D reconstruction algorithm (Mediso) with 4 iterations/6 subsets, corrected for attenuation and scatter with a resulting 0.4 mm^3 voxel size. The PET acquisition was reconstructed to 15 timeframes: 6×5 s; 6×30 s; 3×120 s.
To investigate the initial distribution, uptake and excretion of ^18F-cytochrome C in the body, two rats were dynamically scanned by PET-CT for 30 minutes. […] The ^18F signal peaked over the large abdominal vessels in less than 1 minute and appeared in the bladder in less than 10 minutes. After 10 minutes, the bladder signal increased exponentially and the kidney signal leveled out reflecting urinary excretion of ^18F-cytochrome C breakdown products.

[3] = PET GFR scanning (kidney activity divided by AUC); type: in vivo, rats; conditions: for GFR relative to the initial control value (PET-CT): CKD rats
Description: as §1
SD male rats (n=8) were fed by 0.35% adenine in the chow (Altromin, Denmark) for 7 weeks to induce chronic kidney disease (CKD). PET-CT GFR scanning was performed at baseline and at 3, 5 and 7 weeks after initiation of adenine feeding. Iohexol clearance (described below) was performed at baseline and after 3, 5 and 7 weeks of adenine feeding. Blood samples were taken every second week for creatinine measurements.
All images were analyzed using Inter View Fusion version 3.01.021.0000 (Mediso), and CT and PET images were automatically aligned. The sphere selection volume of interest (VOI) function was used to collect the signal from the large abdominal vessels close to the distal aorta branch level in the frame with the highest intensity and copied to all other frames to obtain the ^18F-cytochrome C intensity as a function of time (input function).
In more detail, 6 input function candidates were generated from 6 sphere-VOIs with diameters of 5, 6, 7, 8, 9, and 10 mm centered on the maximal signal intensity from the vessels and used for regression analyses to obtain an unbiased estimate of the area under the input function (AUC). […] An unbiased AUC was obtained from the regression analysis using a VOI-volume (x in regression equation) corresponding to a blood vessel diameter of 2.41 mm as measured by the ruler function with the software on the contrast CT images (n=8 images from 8 rats, SD=0.02). This approach was verified by ex vivo blood and kidney samples in a separate set of rats (n=8), i.e. the ^18F-clearances obtained by ex vivo sampling were not different from those obtained by the PET images. The same approach was adopted for mice using sphere diameters of 1, 1.5, 2, 2.5, 3, 3.5, and 4 mm and abdominal vessel diameter of 0.9 mm (n=8 mice, SD=0.07). The auto segmentation tool was used to collect the ^18F-signals from both kidneys at 5.5 minutes using thresholds that gave VOI-volumes that matched the kidney volumes as measured by contrast CT. The total kidney ^18F-activity was calculated as the mean VOI-intensity multiplied with the kidney cortex volume (total kidney volume from CT×2/3) and divided by AUC to obtain GFR.

Mouse PET-CT GFR = type: in vivo; conditions: male C3H mice
Description: as §1, with “Images were reconstructed in 1-5 coincidence mode using the Tera-Tomo 3D reconstruction algorithm (Mediso) with 4 iterations/6 subsets, corrected for attenuation and scatter with a resulting 0.4 mm^3 voxel size. The PET acquisition was reconstructed to 15 timeframes: 6×5 s; 6×30 s; 3×120 s.” left out
In more detail, 6 input function candidates were generated from 6 sphere-VOIs with diameters of 5, 6, 7, 8, 9, and 10 mm centered on the maximal signal intensity from the vessels and used for regression analyses to obtain an unbiased estimate of the area under the input function (AUC). […] An unbiased AUC was obtained from the regression analysis using a VOI-volume (x in regression equation) corresponding to a blood vessel diameter of 2.41 mm as measured by the ruler function with the software on the contrast CT images (n=8 images from 8 rats, SD=0.02). […] The auto segmentation tool was used to collect the ^18F-signals from both kidneys at 5.5 minutes using thresholds that gave VOI-volumes that matched the kidney volumes as measured by contrast CT. […]

Iohexol plasma clearance = type: in vivo, rats; conditions: for GFR relative to the initial control value (iohexol): CKD rats; for clearance: rat, plasma, 105 mg
[4] = Iohexol plasma clearance in mice; type: in vivo; conditions: mouse, intravenous, 100 μl (iohexol diluted 1:10 from stock solution), male C3H mice, read-out: GFR with the iohexol plasma clearance method
Description: Male mice (C3H, n=8) anesthetized with isoflurane were injected i.v. in the tail vein with 100 μl iohexol (diluted 1:10 from stock solution). 15 minutes following the injection, the mice were re-anesthetized with isoflurane and were kept anesthetized until termination of the experiments. Blood samples (each 20 μl) were collected from the retro-orbital space at 15, 30, 45 and 60 minutes.
Iohexol clearance was calculated by a bi-exponential method as: GFR=Dose/AUC, where AUC is the area under the plasma iohexol concentration curve. In addition, the slope of the second mono-exponential phase of the plasma disappearance curve for iohexol (k) was calculated using blood samples taken at 60, 90, 120, and 180 minutes.
For measurement of iohexol, all blood samples were centrifuged at 2000 g for collection of plasma. Plasma samples (5 μl from rats and 1 μl from mice) were immediately diluted 7.5-60 times by 0.1% (v/v) trifluoroacetic acid (TFA) in water and their iohexol concentrations were measured by two-dimensional HPLC using the Thermo Scientific™ Dionex™ UltiMate™ […] Rapid Separation series hardware, column switching and Chromeleon Chromatography Data System software (7.2.10). […] Both columns were washed separately by 99.9% acetonitrile/0.1% TFA, re-equilibrated in 0.1% TFA in water and ready for the next sample 9 minutes after injection. […]

Molecule: ^18F-cytochrome C: Cytochrome C from bovine heart labelled with [^18F]F-Py-TFP, comprising a 6-[^18F]fluoropyridine-3-carboxy group
Dimer formation / protein binding (size exclusion HPLC elution pattern) [1]: no sign of dimer formation or protein binding | Involvement of other organs such as liver and spleen [2]: negligible involvement of other organs | Time of ^18F signal appearance in the bladder ([2]; iv): less than 10 minutes | Time of ^18F signal peak over the large abdominal vessels ([2]; iv): less than 1 minute | GFR relative to the initial control value (PET-CT) ([3]; 3 weeks of adenine): −50% | GFR relative to the initial control value (PET-CT) ([3]; 7 weeks of adenine): −20% | GFR (PET) ([3]; SD female rats (n = 6)): 1.88 ± 0.16 mL/min | GFR/100 g (PET) ([3]; SD female rats (n = 6)): 0.61 ± 0.06 ml/min · 100 g rat | PET-CT GFR ([3]; SD females (n=6), FIG. 5D): 2.3 ± 0.3 mL/min | GFR (PET) ([3]; SD male rats (n = 8)): 3.20 ± 0.12 mL/min | GFR/100 g (PET) ([3]; SD male rats (n = 8)): 0.66 ± 0.07 ml/min · 100 g rat | Mean GFR, PET-CT value ([3]; SD male rats, baseline before 0.35% adenine (CKD model)): 2.94 ± 0.12 mL/min | GFR (PET) ([3]; Wistar male rats (n = 6)): 3.01 ± 0.35 mL/min | GFR/100 g (PET) ([3]; Wistar male rats (n = 6)): 0.68 ± 0.11 ml/min · 100 g rat | GFR measured with PET (Mouse PET-CT GFR): 0.55 ± 0.12 mL/min

GFR relative to the initial control value (iohexol) (Iohexol plasma clearance; 3 weeks of adenine): −50% | GFR relative to the initial control value (iohexol) (Iohexol plasma clearance; 7 weeks of adenine): −20% | GFR Iohexol/100 g (Iohexol plasma clearance; SD female rats (n = 6)): 0.73 ± 0.07 ml/min · 100 g | k, plasma disappearance rate constant of iohexol for the second mono-exponential phase (Iohexol plasma clearance; SD female rats (n = 6)): 0.026 ± 0.002 min⁻¹ | iohexol-based GFR (Iohexol plasma clearance; SD females (n=6), FIG. 5D): 2.3 ± 0.3 mL/min | GFR Iohexol/100 g (Iohexol plasma clearance; SD male rats (n = 8)): 0.59 ± 0.06 ml/min · 100 g | k, plasma disappearance rate constant of iohexol for the second mono-exponential phase (Iohexol plasma clearance; SD male rats (n = 8)): 0.025 ± 0.002 min⁻¹ | GFR Iohexol/100 g (Iohexol plasma clearance; Wistar male rats (n = 6)): 0.64 ± 0.01 ml/min · 100 g | k, plasma disappearance rate constant of iohexol for the second mono-exponential phase (Iohexol plasma clearance; Wistar male rats (n = 6)): 0.027 ± 0.002 min⁻¹ | clearance (Iohexol plasma clearance; intravenous, SD male rats, baseline before 0.35% adenine (CKD model), read-out: Mean GFR estimated from iohexol clearance): 2.89 ± 0.14 mL/min | clearance (Iohexol plasma clearance; iv, SD female rats (n = 6), read-out: GFR Iohexol (iohexol clearance)): 2.25 ± 0.26 mL/min | clearance (Iohexol plasma clearance; iv, SD male rats (n = 8), read-out: GFR Iohexol (iohexol clearance)): 2.89 ± 0.12 mL/min | clearance (Iohexol plasma clearance; iv, Wistar male rats (n = 6), read-out: GFR Iohexol (iohexol clearance)): 2.84 ± 0.34 mL/min | clearance [4]: 0.51 ± 0.13 mL/min
Molecule: CC(=O)N(CC(O)CO)c1c(I)c(C(=O)NCC(O)CO)c(I)c(C(=O)NCC(O)CO)c1I (stereo not shown) [Iohexol]

B1: unlabelled cystatin C: Human cystatin C purchased from Nordic BioSite, unlabelled (protein, UniProt P01034 27-146, looked up)
Cystatin-C: SSPGKPPRLVGGPMDASVEEEGVRRALDFAVGEYNKASNDMYHSRALQVVRARKQIVAGVNYFLDVELGRTTCTKTQPNLDNCPFHDQPHLKRKAFCSFQIYAVPWQGTMTLSKSTCQDA
Dimer formation / protein binding (size exclusion HPLC elution pattern) [1]: appeared mainly as dimers

B2: ^124I-labelled cystatin C: Human cystatin C (Nordic BioSite) labelled with ^124I for PET by Iodo-Gen (protein, UniProt P01034 27-146, looked up)
Cystatin-C: SSPGKPPRLVGGPMDASVEEEGVRRALDFAVGEYNKASNDMYHSRALQVVRARKQIVAGVNYFLDVELGRTTCTKTQPNLDNCPFHDQPHLKRKAFCSFQIYAVPWQGTMTLSKSTCQDA
modifications: 124I label
notes: Human cystatin C (Nordic BioSite) labelled with ^124I for PET by Iodo-Gen
Dimer formation / protein binding (size exclusion HPLC elution pattern) [1]: appeared mainly as dimers
